Data on two proteins can be found in paper PMC11352566, “Recombinant C-Terminal Catalytic Domain of Rat L-Gulono Lactone Oxidase Produced in Bacterial Cells Is Enzymatically Active” (Current Issues in Molecular Biology, 2024).

Substrate in the data set: O=C1O[C@H]([C@@H](O)CO)[C@H](O)[C@@H]1O
Description: ascorbic acid formation, colorimetric kit; Lineweaver-Burk. To be noted: 50 mM potassium phosphate pH 7.0, 50 mM citrate, 1 mM DTT, 10 µM FAD, aerobic (O2), 37 °C. The class given is biochemical, Rattus norvegicus.

B1: fGULO (full-length rat GULO, fGULO-His) (Rattus norvegicus) (protein)
chain: MVHGYKGVQFQNWAKTYGCSPEVYYQPTSVEEVREVLALAREQKKKVKVVGGGHSPSDIACTDGFMIHMGKMNRVLQVDKEKKQITVEAGILLADLHPQLDEHGLAMSNLGAVSDVTVAGVIGSGTHNTGIKHGILATQVVALTLMTADGEVLECSESRNADVFQAARVHLGCLGIILTVTLQCVPQFHLQETSFPSTLKEVLDNLDSHLKRSEYFRFLWFPHTENVSIIYQDHTNKAPSSASNWFWDYAIGFYLLEFLLWTSTYLPCLVGWINRFFFWMLFNCKKESSNLSHKIFTYECRFKQHVQDWAIPREKTKEALLELKAMLEAHPKVVAHYPVEVRFTRGDDILLSPCFQRDSCYMNIIMYRPYGKDVPRLDYWLAYETIMKKFGGRPHWAKAHNCTQKDFEEMYPTFHKFCDIREKLDPTGMFLNSYLEKVFY
As for B1, the Km is reported as 53.5 ± 5 µM.

B2: cGULO (C-terminal catalytic domain of rat GULO, cGULO-His) (Rattus norvegicus) (protein)
chain: NRFFFWMLFNCKKESSNLSHKIFTYECRFKQHVQDWAIPREKTKEALLELKAMLEAHPKVVAHYPVEVRFTRGDDILLSPCFQRDSCYMNIIMYRPYGKDVPRLDYWLAYETIMKKFGGRPHWAKAHNCTQKDFEEMYPTFHKFCDIREKLDPTGMFLNSYLEKVFY
notes: C-terminal cytoplasmic (catalytic ALO) domain, 167 residues, lacks 273 N-terminal residues incl
As to B2, the Michaelis constant (Km) stood at 42 ± 6.3 µM.
